According to article PMC7460673, “Biochemical Characterization and Crystal Structure of a Novel NAD^+-Dependent Isocitrate Dehydrogenase from Phaeodactylum tricornutum” (International Journal of Molecular Sciences, 2020):
“And” between values parts separate entries of the source, which are not always exact repeats. Equal values may be shown once. One block for each molecule: values may come before it.

Legend:
PtIDH1 [1] = molecular target: T1, PtIDH1 (Phaeodactylum tricornutum, UniProt B7G620); test: spectrophotometric NADH formation at […] nm; assay type: biochemical
T1 construct: gene IDH1; hexamer also seen; C-terminal EF-hand domain

[2] = molecular target: Phaeodactylum tricornutum isocitrate dehydrogenase 1, mature (without mitochondrial-targeting peptide) (Phaeodactylum tricornutum); test: SEC; Superdex 200 10/300 column calibrated with five standard proteins, 0.5 mL/min; 20 mM Tris, 300 mM NaCl, 5% glycerol, pH 7.5
PtIDH1 [3] = molecular target: T1, PtIDH1; test: spectrophotometric NADH formation at […] nm; assay type: biochemical; conditions: read-out: Relative Activity (%) / PtIDH1
purified protein [4] = substrate: O=C(O)CC(C(=O)O)C(O)C(=O)O; test: purified protein; assay type: biochemical, Phaeodactylum tricornutum; conditions: 2 mM Mn2+, NAD+, 50 mM Tris pH 8.0, 25 °C, varied as DL-isocitrate, cooperative, nH 1.43
purified protein [5] = substrate: NC(=O)c1ccc[n+]([C@@H]2O[C@H](COP(=O)([O-])OP(=O)(O)OC[C@H]3O[C@@H](n4cnc5c(N)ncnc54)[C@H](O)[C@@H]3O)[C@@H](O)[C@H]2O)c1; test: purified protein; assay type: biochemical, Phaeodactylum tricornutum; conditions: 2 mM Mn2+, DL-isocitrate, 50 mM Tris pH 8.0, 25 °C, varied: cofactor

Molecule: NC(=O)C1=CN([C@@H]2O[C@H](COP(=O)(O)OP(=O)(O)OC[C@H]3O[C@@H](n4cnc5c(N)ncnc54)[C@H](O)[C@@H]3O)[C@@H](O)[C@H]2O)C=CC1 [NADH]
- Ki (PtIDH1 [1]): 450 ± 80 µM

Molecule: Nc1ncnc2c1ncn2[C@@H]1O[C@H](COP(=O)(O)OP(=O)(O)O)[C@@H](O)[C@H]1O [ADP]
- activity at 1000 µM (PtIDH1 [3]): 86.63 ± 0.2%

B1: PtIDH1 (Phaeodactylum tricornutum CCAP 1055/1) (protein)
chain: MLSVENKVVAPPMVYIAGEEMTRYACDLVVKSWLEPYFDLSQWEYFDLSCVNRDNTNDQVLRDAVTAGQRIGAIFKEPTITPSAIQKKAFGLKNSLGSPNGAMRAGWNGITISRDTIHIDGIELGYKRPVFFERHAVGGEYGAGWSKVGRGTLLTTYLPSDGRDPFVVDKRDLTDQHNVVVTYHNPYDNVEPLAHLFFQRCLDANITPYVVTKKTVFKWQEGFWAVMKDVFDEHYKSRFEEKGLLQACGGDLQHLISDAATMQLIRWTDGGFGMAAHNYDGDMLTDQIAQVHRSPGFITSNLVGKAPDGSLIKEFEASHGTVSDLWNDHLAGKETSLNPLGLVEAIVGALQHAAVLDAEKNPDDEHKVKARDQIFNFTTTLRTAMHNTFRYGQGTRDMSGPSGYTTEDFVRKVAWRLQRYLDAQYDEAPPPQLGEPSRKLRRNYDIDEEAINGLFQKYDKNGDGFIDFEEFTRMLVKMNLAPLLTKKEKEKKPDV
notes: hexamer also seen; C-terminal EF-hand domain
- K0.5 (purified protein [4]): 84.9 ± 5.2 µM
- Km (purified protein [5]): 1132.5 ± 23.3 µM
- kcat (purified protein [5]): 180.5 ± 6.8 s⁻¹
- kcat/Km (purified protein [5]): 160000 M⁻¹ s⁻¹

The next lines start with the values.

- stoichiometry N [2]: 2 and 6
Molecule: Phaeodactylum tricornutum isocitrate dehydrogenase 1, mature (without mitochondrial-targeting peptide) (enzyme)

- activity at 1000 µM (PtIDH1 [3]): 88.7 ± 0.8%
Molecule: Nc1ncnc2c1ncn2[C@@H]1O[C@H](COP(=O)(O)OP(=O)(O)OP(=O)(O)O)[C@@H](O)[C@H]1O [ATP]
